In PMC3285579 one finds relative intensity of NCK-1 pulled down by MBP-WSP-1 with UNC-34 and VAB-1 added (NCK-1 alone = 1.0) and relative intensity of NCK-1 pulled down by MBP-WSP-1 with UNC-34 added (without UNC-34 = 1.0) data, which are given here for two substances.

For assay [1], the target named is MBP-WSP-1(334 aa-608 aa) (C. elegans). The assay can be described thus: pull-down; MBP pull-down with competitors (Figure 6B): MBP-WSP-1 on amylose resin; soluble extracts of GST-NCK-1 F.L., GST-UNC-34 F.L. and His-VAB-1 as load; band intensities quantified from at least two independent blots with Image J; wash 20 mM Tris-Cl pH 7.5, 200 mM NaCl, 1 mM EDTA, 1 mM DTT.
Chain of MBP-WSP-1(334 aa-608 aa) (C. elegans) (main, as listed by the source): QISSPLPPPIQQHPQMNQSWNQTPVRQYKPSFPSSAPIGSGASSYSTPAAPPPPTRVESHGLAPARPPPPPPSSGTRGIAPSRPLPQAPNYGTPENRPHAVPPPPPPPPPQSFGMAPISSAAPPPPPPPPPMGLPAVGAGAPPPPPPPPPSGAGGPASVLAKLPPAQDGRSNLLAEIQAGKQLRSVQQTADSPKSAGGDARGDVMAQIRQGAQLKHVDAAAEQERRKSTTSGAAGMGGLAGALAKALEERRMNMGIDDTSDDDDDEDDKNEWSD

Assay [2] has as its target GST-NCK-1 F.L., full length NCK-1 (1 aa-397 aa) (C. elegans). The assay is described as above.

“GST-NCK-1 F.L., full length NCK-1 (1 aa-397 aa) (natural protein)” displayed a relative intensity of NCK-1 pulled down by MBP-WSP-1 with UNC-34 and VAB-1 added (NCK-1 alone = 1.0) in assay [1] of 1.3. With “GST-UNC-34 F.L., full length UNC-34 (1 aa-454) (natural protein)”, in assay [2], the relative intensity of NCK-1 pulled down by MBP-WSP-1 with UNC-34 added (without UNC-34 = 1.0) is 0.3.
